Residue numbers refer to the chain shown, from its start. Blank lines part the entries; values can stand above or below the binder they belong to.
Key:
human BCMA protein = biological target: T1, human BCMA protein (human, UniProt Q02223 1-54, limits assumed); test: affinity to human BCMA protein, method not stated
T1 sequence: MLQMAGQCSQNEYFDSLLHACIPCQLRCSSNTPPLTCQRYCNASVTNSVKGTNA

[1] = biological target: T2, human BCMA on BCMA expressing cell lines (human, UniProt Q02223 1-184); test: cell-based or functional assay
T2 sequence: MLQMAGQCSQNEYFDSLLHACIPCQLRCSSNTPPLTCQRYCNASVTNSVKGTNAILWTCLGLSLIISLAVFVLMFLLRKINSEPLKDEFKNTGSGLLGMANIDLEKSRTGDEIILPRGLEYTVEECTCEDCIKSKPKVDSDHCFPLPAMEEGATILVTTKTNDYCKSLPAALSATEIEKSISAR

- Kd (human BCMA protein): 11.7 nM
- TDCC EC50 (EJM cells) [1]: 0.0108 nM
B1: BCMA targeting trispecific protein 01E05 (other)
VHH: EVQLVESGGGLVQPGRSLTLSCAASTNIFSRSPMGWYRQAPGKQRELVAAIHGTSTLYADSVKGRFTISRDNAKNSIYLQMNSLRPEDTALYYCNKVPWGKYHPRNVYWGQGTQVTVSS
notes: trispecific; not shown: the C-terminal 6xHis tag follows those missing domains and is left out

- Kd (human BCMA protein): 23.3 nM
- TDCC EC50 (EJM cells) [1]: 0.0428 nM
B2: BCMA targeting trispecific protein 02D06 (other, not shown: large carriers; small tags and cut ends)
VHH: B1 VHH with F29S, R31I, T54F, L57V, K101R
notes: trispecific

- Kd (human BCMA protein): 6.71 nM
- TDCC EC50 (EJM cells) [1]: 0.00235 nM
B3: BCMA targeting trispecific protein 02D11 (other)
VHH: B1 VHH with I28E, R31I, T54E, K101D, R105G
notes: trispecific; not shown: the C-terminal His6 follows those missing domains and is left out

- Kd (human BCMA protein): 13.3 nM
- TDCC EC50 (EJM cells) [1]: 0.0144 nM
B4: BCMA targeting trispecific protein 02B11 (other)
VHH: B1 VHH with F29V, R31I, T54D, K101D, Y108S
notes: trispecific; not shown: anti-albumin domain, anti-CD3 domain and the linkers of the trispecific (TriTAC) format

- Kd (human BCMA protein): 16.7 nM
- TDCC EC50 (EJM cells) [1]: 0.0372 nM
B5: BCMA targeting trispecific protein 01F05 (other)
VHH: B1 VHH with R31S, T54F, L57W, K101R
notes: trispecific; not shown: The C-terminal 6xHis tag is left out because it follows these missing domains

- Kd (human BCMA protein): 6.55 nM
- TDCC EC50 (EJM cells) [1]: 0.00221 nM
B6: BCMA targeting trispecific protein 01F04 (other)
VHH: B1 VHH with F29D, R31I, T54F, S55Q, K101D, R105G
notes: as for B3

- Kd (human BCMA protein): 6.9 nM
- TDCC EC50 (EJM cells) [1]: 0.00195 nM
B7: BCMA targeting trispecific protein 02C06 (other, not shown: large carriers; small tags and cut ends)
VHH: B1 VHH with R31T, K101D, R105G
notes: trispecific

- Kd (human BCMA protein): 15.8 nM
- TDCC EC50 (EJM cells) [1]: 0.0142 nM
B8: BCMA targeting trispecific protein 02B07 (other)
VHH: B1 VHH with R31S, T54H, K101D, Y108T
notes: as for B4

- Kd (human BCMA protein): 14.4 nM
- TDCC EC50 (EJM cells) [1]: 0.00744 nM
B9: BCMA targeting trispecific protein 01F10 (other)
VHH: B1 VHH with T26S, R31I, T54E, K101D, Y108T
notes: as for B1

- Kd (human BCMA protein): 9.7 nM
- TDCC EC50 (EJM cells) [1]: 0.00398 nM
B10: BCMA targeting trispecific protein 01G11 (other, not shown: large carriers; small tags and cut ends)
VHH: B1 VHH with F29P, R31I, T54A, K101D, Y108A
notes: trispecific

- Kd (human BCMA protein): 19.9 nM
- TDCC EC50 (EJM cells) [1]: 0.0192 nM
B11: BCMA targeting trispecific protein 01E07 (other)
VHH: B1 VHH with F29P, R31I, T54Q, K101D, Y108Q
notes: trispecific; not shown: anti-albumin domain, anti-CD3 domain and the linkers of the trispecific (TriTAC) chain; the C-terminal 6xHis tag follows these missing domains and is left out

- Kd (human BCMA protein): 41.3 nM
- TDCC EC50 (EJM cells) [1]: 0.225 nM
B12: BCMA targeting trispecific protein 01F02 (other)
VHH: B1 VHH with R31H, K101R
notes: trispecific; not shown: anti-albumin domain, anti-CD3 domain and the linkers of the trispecific; the C-terminal His6 that follows them is left out

- Kd (human BCMA protein): 25.2 nM
- TDCC EC50 (EJM cells) [1]: 0.0606 nM
B13: BCMA targeting trispecific protein 02A11 (other)
VHH: B1 VHH with I28H, R31I, T54S, K101D, N106V
notes: trispecific; also called 02All; not shown: the C-terminal 6xHis tag follows those domains and is left out

- Kd (human BCMA protein): 5.31 nM
- TDCC EC50 (EJM cells) [1]: 0.00155 nM
B14: BCMA targeting trispecific protein 02C01 (other)
VHH: B1 VHH with F29I, R31I, T54A, K101D, R105G
notes: as for B12

- Kd (human BCMA protein): 40.5 nM
- TDCC EC50 (EJM cells) [1]: 0.392 nM
B15: BCMA targeting trispecific protein 01F12 (other)
VHH: B1 VHH with S30R, R31I, T54D, K101R
notes: as for B12

- Kd (human BCMA protein): 14.6 nM
- TDCC EC50 (EJM cells) [1]: 0.00583 nM
B16: BCMA targeting trispecific protein 01G01 (other)
VHH: B1 VHH with F29V, R31I, T54D, K101D, N106R
notes: as for B1

- Kd (human BCMA protein): 41.9 nM
- TDCC EC50 (EJM cells) [1]: 0.143 nM
B17: BCMA targeting trispecific protein 01G10 (other, not shown: large carriers; small tags and cut ends)
VHH: B1 VHH with I28E, R31I, T54L, K101A
notes: trispecific

- Kd (human BCMA protein): 11.7 nM
- TDCC EC50 (EJM cells) [1]: 0.0241 nM
B18: BCMA targeting trispecific protein 01G04 (other, not shown: large carriers; small tags and cut ends)
VHH: B1 VHH with F29D, R31I, T54N, K101D, N106M
notes: trispecific

- Kd (human BCMA protein): 17 nM
- TDCC EC50 (EJM cells) [1]: 0.0192 nM
B19: BCMA targeting trispecific protein 01G06 (other, not shown: large carriers; small tags and cut ends)
VHH: B1 VHH with T54F, S55E, K101D, Y108L
notes: trispecific

- Kd (human BCMA protein): 35.9 nM
- TDCC EC50 (EJM cells) [1]: 0.118 nM
B20: BCMA targeting trispecific protein 01H01 (other, not shown: large carriers; small tags and cut ends)
VHH: B1 VHH with F29G, R31I, T54Q, K101D, R105Q
notes: trispecific

- Kd (human BCMA protein): 20 nM
- TDCC EC50 (EJM cells) [1]: 0.0152 nM
B21: BCMA targeting trispecific protein 02F11 (other)
VHH: B1 VHH with R31T, K101D, Y108Q
notes: as for B4

- Kd (human BCMA protein): 52.8 nM
- TDCC EC50 (EJM cells) [1]: 0.945 nM
B22: BCMA targeting trispecific protein 01F09 (other)
VHH: B1 VHH with F29S, R31I, T54H, K101R
notes: as for B12

- Kd (human BCMA protein): 8.91 nM
- TDCC EC50 (EJM cells) [1]: 0.00377 nM
B23: BCMA targeting trispecific protein 01E06 (other, not shown: large carriers; small tags and cut ends)
VHH: B1 VHH with R31L, T54D, K101D
notes: trispecific

- Kd (human BCMA protein): 18.5 nM
- TDCC EC50 (EJM cells) [1]: 0.0623 nM
B24: BCMA targeting trispecific protein 01E10 (other)
VHH: B1 VHH with F29E, R31I, T54K, K101D, N106R
notes: trispecific; not shown: the C-terminal 6xHis tag follows those domains and is left out

- Kd (human BCMA protein): 7.06 nM
- TDCC EC50 (EJM cells) [1]: 0.00317 nM
B25: BCMA targeting trispecific protein 01H11 (other, not shown: large carriers; small tags and cut ends)
VHH: B1 VHH with A23V, R31T, T54F, K101D, R105G
notes: trispecific

From US20240327534A1 (HARPOON THERAPEUTICS, published 2024)
